{
  "source": "paper PMC4430413",
  "biological_target": "monomeric Uox conjugated to HSA (HSA-conjugated Uox-W160.174AzF subunit of Uox-HSA) (Aspergillus flavus | human) (UniProt P02768)",
  "sequence (P02768 whole entry, looked up)": "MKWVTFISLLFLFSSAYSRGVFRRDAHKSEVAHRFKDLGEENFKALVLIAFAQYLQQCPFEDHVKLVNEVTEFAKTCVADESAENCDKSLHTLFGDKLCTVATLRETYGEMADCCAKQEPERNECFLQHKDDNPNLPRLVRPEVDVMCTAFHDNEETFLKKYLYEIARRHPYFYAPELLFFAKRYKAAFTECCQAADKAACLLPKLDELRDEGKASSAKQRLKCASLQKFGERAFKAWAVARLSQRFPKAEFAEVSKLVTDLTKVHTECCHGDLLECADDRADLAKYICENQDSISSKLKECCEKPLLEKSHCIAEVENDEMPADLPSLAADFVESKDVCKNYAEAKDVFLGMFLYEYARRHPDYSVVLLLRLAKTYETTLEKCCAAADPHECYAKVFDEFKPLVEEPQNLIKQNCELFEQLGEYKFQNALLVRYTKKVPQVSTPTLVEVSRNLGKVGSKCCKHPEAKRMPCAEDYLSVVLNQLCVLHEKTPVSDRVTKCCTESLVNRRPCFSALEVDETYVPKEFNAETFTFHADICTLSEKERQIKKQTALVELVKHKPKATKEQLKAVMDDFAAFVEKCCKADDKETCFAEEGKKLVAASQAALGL",
  "assay": "co-purification by ion exchange chromatography, read by SDS-PAGE",
  "data": [
    {"substance": "AzF-incorporated urate oxidase (Uox-W160.174AzF) (enzyme)", "values": [
      {"measurement": "molar ratio of unreacted Uox monomer to monomeric Uox conjugated to HSA", "result": 2.5}
    ]}
  ]
}
